The series has as its system p120 catenin expressed from a transfected plasmid (exogenous p120, HA-tagged in Example 1).

Experimental findings from patent publication US20050276757 are described below.

“ZC1 kinase, over-expressed from a plasmid (active full-length ZC1)”: the “in vitro phosphorylation (32P-ATP, autoradiography)” value was “p120 immunoprecipitated from cells co-expressing ZC1 also showed phosphorylation of p120 in vitro by associated ZC1”.
